Consider 15 molecules from US20220356239A1 (JIANGSU HENGRUI MEDICINE, published 2022).

For orientation: IC50 means the concentration needed to halve the response being measured. A higher IC50 goes with weaker potency. Broadly, the Kd is the concentration at which binding is half-saturated. Lower therefore signals higher affinity.

Test [1] has as its target T1, Human IL-5 amino acid sequence with his tag (rhIL-5-his) (human, UniProt P05113 20-134).
T1 sequence: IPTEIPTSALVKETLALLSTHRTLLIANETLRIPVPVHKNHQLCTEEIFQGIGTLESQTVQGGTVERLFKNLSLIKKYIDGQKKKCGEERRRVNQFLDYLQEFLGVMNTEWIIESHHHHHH
Briefly: cell-based or functional assay.

For test [2], the target named is T1, Human IL-5 amino acid sequence with his …. Briefly: FACS blocking of biotin-IL-5 binding to IL-5Rα/β CHO-S cells. On the procedure: Particular method: CHO-S-IL-5Rα and β were cultivated with CD-CHO containing […] and 25 ng/ml zeozin, and the concentration during cell culture was no more than 3×10⁶ cells/ml. The IL-5Rα/β-CHOS cells in good condition were centrifuged (1000 rpm, 5 min), washed once with 10% FBS in PBS, counted, the cell concentration was adjusted to 4×10⁶ cells/ml, and 25 μl of which was added to 96-well plate with round bottom. Antibodies to be tested were diluted with PBS solution containing 10% FBS, with an initial concentration of 200 μg/ml, and 8 gradients were obtained by 1:10 dilution. 25 μl of 100 ng/ml IL-5 labeled with Biotin Labeling Kit (Dojindo Chemical, LK03), was uniformly mixed with 50 μl of each diluted antibody, added into the 96-well plate to which the cells has been added, and incubated at 4° C. for 1 hour. After the incubation, centrifuged at 4° C. (400 g, 5 min), the supernatant was discarded, centrifuged and washed with 200 μl of pre-cooled PBS, repeat twice; PE-Avidin secondary antibody diluted at 1:1333 was added and incubated in darkness at […] for 40 min, the supernatant was discarded after being centrifuged at 4° C. […] The plate was read on instrument, and IC50 values for IL-5 antibodies to block the binding between IL-5 and IL-5Rα/β were calculated based on the fluorescence signal values.

Test [3] has the same target. Briefly: Biacore T200 SPR, antibody captured on Protein A chip, antigen in flow, 1:1 Langmuir fit. On the procedure:
The affinity between the test humanized IL-5 antibodies and human IL-5 was determined by using Biacore T200 (GE) instrument.
Molecules to be tested were affinity-captured by Protein A biosensor chip, and then the antigen (prepared in Example 1) was flowed through the surface of the chip, and the reaction signals were detected in real time by using Biacore T200 instrument to obtain binding and dissociation curves. After the dissociation of each cycle of experiment was completed, the biosensor chip was washed and regenerated with glycine-hydrochloric acid regeneration solution (pH 1.5). The data was fitted to the (1:1) Langmuir model by using BIAevaluation version 4.1 GE software, and the affinity values were obtained as shown in Table 14.

The target is the same in test [4]. Briefly: cell-based or functional assay. The source holds these as a separate data set.

B1: h1773-007 (antibody, human IgG1, kappa, V domains shown)
VH: EVQLVESGGGLVQPGGSLKLSCAASGFTISNTYIHWVKQASGKGLEWIGRIDPAVGDTKHGPKFQGRFTISADDSKNTAYLQMNSLKTEDTAVYYCFRYGIYPDHWGQGTLVTVSS
VL: DIQLTQSPSSLSASVGDRVTITCSASSSVNYIYWYQQKPGKSPKPWIYLTATLASGVPSRFSGSGSGTDFTLTISSLQPEDFATYYCQQWNSYPYTFGGGTKVEIKR
Regarding B1, in test [1], the “IC50 of inhibition of IL-5-induced proliferation of TF1 cells” value (“IC50 of inhibition … of TF1 cells” for short) was found to be 0.38 nM.

B2: h1779-014 (antibody, human IgG1, kappa, V domains shown)
VH: EVQLVQSGAEVKKPGASVKVSCKASGYTFTDYIIHWVKQAPGQGLEWIGYFNPNSGGSNYNENFKRKATMTADKSISTAYLEFSRLRSEDTAVYYCARRIAWDHWYFDFWGQGTMVTVSS
VL: DIQMTQSPSSLSASVGDRVTITCLASEGISNDVAWYQQKPGKSPKLLIYAASRLQDGVPSRFSGSGSGTDFTFTISSLQPEDIATYYCQQGYKTPLTFGQGTKLEIKR
notes: h1779_VH.1D + h1779_VL.1A; IgG1 (YTE) / kappa constant regions
Take B2: the “IC50 of inhibition … of TF1 cells” value in test [1] amounted to 0.2 nM. Further, the 50% inhibitory concentration (IC50) in test [2] is 0.0496 µg/mL. Moreover, in test [3], the affinity, expressed as Kd, was 0.412 nM.

B3: h1780-017 (antibody, human IgG1, kappa, V domains shown)
VH: EVQLVQSGAEVKKPGASVKVSCKASGYTFTEYLIHWVRQAPGQGLEWIGYINPYSGGTVYNEKFKSRATLTVDKSISTAYMEFSRLRSDDTAVYYCARDGGYSDPLDYWGQGTMVTVSS
VL: DTVLTQSPATLSLSPGERATLSCRASEGLTSYMHWYQQKPGQAPRLLIYKASNLASGVPARFSGSGSGTDFTLTISSLEPEDFATYFCQQNWNDPWTFGGGTKVEIKR
As to B3, in test [1], the “IC50 of inhibition … of TF1 cells” value stood at 0.16 nM. Moreover, in test [4], the “IC50 of blocking IL-5-induced eosinophil adhesion” value was 0.0212 µg/mL.

B4: Hu39D10 (antibody, human IgG4 S228P, kappa, V domains shown)
VH: EVQLVESGGGLVQPGGSLRLSCAVSGLSLTSNSVNWIRQAPGKGLEWVGLIWSNGDTDYNSAIKSRFTISRDTSKSTVYLQMNSLRAEDTAVYYCAREYYGYFDYWGQGTLVTVSS
VL: DIQMTQSPSSLSASVGDRVTITCLASEGISSYLAWYQQKPGKAPKLLIYGANSLQTGVPSRFSGSGSATDYTLTISSLQPEDFATYYCQQSYKFPNTFGQGTKVEVKR
As to B4, the “IC50 of inhibition … of TF1 cells” value in test [1] was 0.3 nM. The “IC50 of blocking IL-5-induced eosinophil adhesion” value in test [4] worked out at 0.0118 µg/mL.

B5: h1706-006 (antibody, human IgG1, kappa, V domains shown)
VH: EVQLVESGGGLVQPGGSLRLSCAASGFTFSHYYMAWVRQAPGKGLEWVSSINYEGNSAYYGDSVKGRFTISRDNSKNTLYLQMNSLRAEDTAVYYCATETLRESLDYWGQGTMVTVSS
VL: DIQMTQSPSSVSASVGDRVTITCRASQDIGNYLSWYQQKPGKSPKLLIYSASNLEVGVPSRFSGSGSGTDFTLTISSLQPEDFATYYCLQHKQFPRTFGGGTKVEIKR
Turning to B5, in test [1], the “IC50 of inhibition … of TF1 cells” value was determined as 0.34 nM.

B6: h1706-007 (antibody, human IgG1, kappa, V domains shown)
VH: EVQLVESGGGLVQPGGSLRLSCAASGFTFSHYYMAWVRQAPGKGLEWVTSINYEGNSAYYGDSVKGRFTISRDNSKNTLYLQMNSLRAEDTATYYCATETLRESLDYWGQGTMVTVSS
VL: DIQMTQSPSSVSASVGDRVTITCRASQDIGNYLSWYQQKPGKSPKLLIYSASNLEVGVPSRFSGSGSGTDFTLTISSLQPEDFATYYCLQHKQFPRTFGGGTKVEIKR
On to B6, for which the “IC50 of inhibition … of TF1 cells” value in test [1] stood at 0.28 nM.

B7: h1705-007 (antibody, human IgG1, kappa, V domains shown)
VH: EVQLVESGGGLVQPGGSLRLSCAASGFTFSHYYMAWVRQAPGKGLEWVSSISYEGDITYYGDSVKGRFTISRDNSKNTLYLQMNSLRAEDTAVYYCASQTLRESFDYWGQGTLVTVSS
VL: DIQMTQSPSSVSASVGDRVTITCRASQDIANYLSWYQQKPGKSPKLLIYGTSNLEVGVPSRFSGSRSGTDFTLTISSLQPEDFATYYCLQDKEFPRTFGGGTKVEIKR
With B7, the “IC50 of inhibition … of TF1 cells” value in test [1] was 0.25 nM.

B8: h1706-004 (antibody, human IgG1, kappa, V domains shown)
VH: EVQLVESGGGLVQPGGSLRLSCAASGFTFSHYYMAWVRQAPGKGLEWVTSINYEGNSAYYGDSVKGRFTISRDNSKNTLYLQMNSLRAEDTATYYCATETLRESLDYWGQGTMVTVSS
VL: DIQMTQSPSSVSASVGDRVTITCRASQDIGNYLSWYQQKPGKAPKLLIYSASNLEVGVPSRFSGSGSGTDFTLTISSLQPEDFATYYCLQHKQFPRTFGGGTKVEIKR
Consider B8, for which the “IC50 of inhibition … of TF1 cells” value in test [1] stood at 0.3 nM.

B9: h1706-003 (antibody, human IgG1, kappa, V domains shown)
VH: EVQLVESGGGLVQPGGSLRLSCAASGFTFSHYYMAWVRQAPGKGLEWVSSINYEGNSAYYGDSVKGRFTISRDNSKNTLYLQMNSLRAEDTAVYYCATETLRESLDYWGQGTMVTVSS
VL: DIQMTQSPSSVSASVGDRVTITCRASQDIGNYLSWYQQKPGKAPKLLIYSASNLEVGVPSRFSGSGSGTDFTLTISSLQPEDFATYYCLQHKQFPRTFGGGTKVEIKR
As to B9, the “IC50 of inhibition … of TF1 cells” value in test [1] is 0.31 nM.

B10: h1705-010 (antibody, human IgG1, kappa, V domains shown)
VH: EVQLVESGGGLVQPGGSLRLSCAASGFTFSHYYMAWVRQAPGKGLEWVSSISYEGDITYYGDSVKGRFTISRDNSKNTLYLQMNSLRAEDTAVYYCASQTLRESFDYWGQGTLVTVSS
VL: DIQMTQSPSSVSASVGDRVTITCRASQDIANYLSWYQQKPGKSPKLVIYGTSNLEVGVPSRFSGSRSGSDYTLTISSLQPEDFATYFCLQDKEFPRTFGGGTKVEIKR
Regarding B10, the “IC50 of inhibition … of TF1 cells” value in test [1] was determined as 0.3 nM.

B11: h1705-005 (antibody, human IgG1, kappa, V domains shown)
VH: EVQLVESGGGLVQPGGSLRLSCAASGFTFSHYYMAWVRQAPGKGLEWVTSISYEGDITYYGDSVKGRFTISRDNSKNTLYLQMNSLRAEDTATYYCASQTLRESFDYWGQGTLVTVSS
VL: DIQMTQSPSSVSASVGDRVTITCRASQDIANYLSWYQQKPGKAPKLLIYGTSNLEVGVPSRFSGSGSGTDFTLTISSLQPEDFATYYCLQDKEFPRTFGGGTKVEIKR
Turning to B11, in test [1], the “IC50 of inhibition … of TF1 cells” value amounted to 0.3 nM.

B12: h1706-009 (antibody, human IgG1, kappa, V domains shown)
VH: EVQLVESGGGLVQPGGSLRLSCAASGFTFSHYYMAWVRQAPGKGLEWVSSINYEGNSAYYGDSVKGRFTISRDNSKNTLYLQMNSLRAEDTAVYYCATETLRESLDYWGQGTMVTVSS
VL: DIQMTQSPSSVSASVGDRVTITCRASQDIGNYLSWYQQKPGKSPKLMIYSASNLEVGVPSRFSGSGSGTDYTLTISSLQPEDFATYFCLQHKQFPRTFGGGTKVEIKR
Take B12: in test [1], the “IC50 of inhibition … of TF1 cells” value turned out to be 0.25 nM. In addition, in test [4], the “IC50 of blocking IL-5-induced eosinophil adhesion” value was 0.0043 µg/mL.

B13: h1705-004 (antibody, human IgG1, kappa, V domains shown)
VH: EVQLVESGGGLVQPGGSLRLSCAASGFTFSHYYMAWVRQAPGKGLEWVSSISYEGDITYYGDSVKGRFTISRDNSKNTLYLQMNSLRAEDTAVYYCASQTLRESFDYWGQGTLVTVSS
VL: DIQMTQSPSSVSASVGDRVTITCRASQDIANYLSWYQQKPGKAPKLLIYGTSNLEVGVPSRFSGSGSGTDFTLTISSLQPEDFATYYCLQDKEFPRTFGGGTKVEIKR
Take B13: the “IC50 of inhibition … of TF1 cells” value in test [1] came to 0.3 nM.

B14: h1705-011 (antibody, human IgG1, kappa, V domains shown)
VH: EVQLVESGGGLVQPGGSLRLSCAASGFTFSHYYMAWVRQAPGKGLEWVTSISYEGDITYYGDSVKGRFTISRDNSKNTLYLQMNSLRAEDTATYYCASQTLRESFDYWGQGTLVTVSS
VL: DIQMTQSPSSVSASVGDRVTITCRASQDIANYLSWYQQKPGKSPKLVIYGTSNLEVGVPSRFSGSRSGSDYTLTISSLQPEDFATYFCLQDKEFPRTFGGGTKVEIKR
B14: in test [1], the “IC50 of inhibition … of TF1 cells” value stood at 0.28 nM.

B15: h1705-008 (antibody, human IgG1, kappa, V domains shown)
VH: EVQLVESGGGLVQPGGSLRLSCAASGFTFSHYYMAWVRQAPGKGLEWVTSISYEGDITYYGDSVKGRFTISRDNSKNTLYLQMNSLRAEDTATYYCASQTLRESFDYWGQGTLVTVSS
VL: DIQMTQSPSSVSASVGDRVTITCRASQDIANYLSWYQQKPGKSPKLLIYGTSNLEVGVPSRFSGSRSGTDFTLTISSLQPEDFATYYCLQDKEFPRTFGGGTKVEIKR
Turning to B15, the “IC50 of inhibition … of TF1 cells” value in test [1] came to 0.2 nM. In addition, the “IC50 of blocking IL-5-induced eosinophil adhesion” value in test [4] was found to be 0.00485 µg/mL.
